According to publication PMC2892321:

Molecular target: postsynaptic density 95 (PSD95), wild type (mouse (endogenous in hippocampus and spinal cord)) (UniProt Q62108)
Assay: co-IP

Sequence of postsynaptic density 95 (PSD95), wild type (mouse (endogenous in hippocampus and spinal cord)) (Q62108 whole entry): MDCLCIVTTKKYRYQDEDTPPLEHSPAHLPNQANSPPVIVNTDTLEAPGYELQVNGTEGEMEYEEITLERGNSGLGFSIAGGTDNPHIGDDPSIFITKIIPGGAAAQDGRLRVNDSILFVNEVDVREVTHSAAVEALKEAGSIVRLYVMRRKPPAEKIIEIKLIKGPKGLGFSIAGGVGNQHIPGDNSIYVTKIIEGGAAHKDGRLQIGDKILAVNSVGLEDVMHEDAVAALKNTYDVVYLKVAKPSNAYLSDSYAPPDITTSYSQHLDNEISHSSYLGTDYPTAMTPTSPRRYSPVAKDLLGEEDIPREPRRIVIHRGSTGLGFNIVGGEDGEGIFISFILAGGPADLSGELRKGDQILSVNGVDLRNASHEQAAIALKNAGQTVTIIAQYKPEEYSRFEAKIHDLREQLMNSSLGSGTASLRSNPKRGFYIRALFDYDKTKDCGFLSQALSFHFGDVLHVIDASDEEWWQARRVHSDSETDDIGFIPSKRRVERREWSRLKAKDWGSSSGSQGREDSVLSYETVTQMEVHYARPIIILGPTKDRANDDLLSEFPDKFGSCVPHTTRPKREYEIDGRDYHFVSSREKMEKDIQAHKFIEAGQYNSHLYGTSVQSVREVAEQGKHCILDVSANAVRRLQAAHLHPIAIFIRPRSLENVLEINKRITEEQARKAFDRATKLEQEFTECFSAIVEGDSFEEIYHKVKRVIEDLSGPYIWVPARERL

PI(3)K-C2α/PSD95 ratio (densitometry), ipsilateral to formalin: 0.053
PI(3)K-C2α/PSD95 ratio (densitometry), naive: 0.019
Substance: phosphatidylinositol-3-kinase-C2α (PI(3)K-C2α) (from UniProt Q61194 1-1686) (enzyme)
